Here are results for 2 substances from patent US20230303711A1.

The target of experiment [1] is Fc-tagged human CD47-ECD protein (CD47-Fc) (human). Briefly: ELISA on coated human CD47-Fc; row printed as Affinity (µg/mL). On the technique in general: In an ELISA, binding on a coated surface is turned into a signal by an enzyme label.
The target of experiment [2] is His-tagged human CD47-ECD protein (CD47-His) (human) (UniProt Q08722). Briefly: competitive ELISA on coated CD47-His (2 µg/mL); blocked ligand SIRPα-Fc-Bio (0.1 µg/mL), HRP-streptavidin, OD450.
Sequence of His-tagged human CD47-ECD protein (CD47-His) (human) (Q08722 other isoform, or with tags, fused parts or gaps): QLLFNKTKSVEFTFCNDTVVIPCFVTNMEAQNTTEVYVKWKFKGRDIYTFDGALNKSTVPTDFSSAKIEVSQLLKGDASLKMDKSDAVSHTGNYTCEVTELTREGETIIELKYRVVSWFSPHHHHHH

Sequence of Fc-tagged human CD47-ECD protein (CD47-Fc) (human) (chain, as listed by the source limits assumed): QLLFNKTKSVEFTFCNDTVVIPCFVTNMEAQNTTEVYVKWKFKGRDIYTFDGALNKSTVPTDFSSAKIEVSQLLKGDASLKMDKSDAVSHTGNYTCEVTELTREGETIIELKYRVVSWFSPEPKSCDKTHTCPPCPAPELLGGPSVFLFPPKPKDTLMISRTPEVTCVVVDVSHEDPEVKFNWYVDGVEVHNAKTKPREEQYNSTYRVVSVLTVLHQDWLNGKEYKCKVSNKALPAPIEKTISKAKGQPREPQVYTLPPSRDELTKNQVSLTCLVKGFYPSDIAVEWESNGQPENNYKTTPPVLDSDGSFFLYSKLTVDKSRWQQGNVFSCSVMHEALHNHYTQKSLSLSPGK

As usually defined, the EC50 is the concentration at which the effect is half-maximal. Substance Antibody Hu5F9-G4 came in with an EC50 in experiment [1] of 0.092 mg/L.

In experiment [2], IgG (antibody) registered a parameter C of the printed 4-parameter fit (OD does not fall, A 1.192, D 1.394; not an IC50) of 5.76 mg/L; a parameter C of the printed 4-parameter fit (OD does not fall, A 1.343, D 8.036; not an IC50) of 13400 mg/L; a parameter C of the printed 4-parameter fit (OD only falls from A 1.633 to D 1.446; not an IC50) of 1.95 mg/L.
